In patent US7981843:

B1: Murine Fab M166 (Fab, from another filing, V domains shown)
VH: QVQLKQSGPGLVQPSQSLSITCTVSGFSLTSYGVHWVRQSPGKGLEWLGVIWSGGDTDYNAAFISRLSISKDNSKSQLFFKMNSLRATDTAIYYCARNRGDIYYDFTYAMDYWGQGTSVTVSS
VL: DIQMTQSPASLSASVGETVTITCRASGNIQNYLAWYQQTQGKSPQLLVYSAKTLADGVPSRFSGSGSGTQYSLKINSLQPEDFGSYYCQHFWSTPYTFGGGTKLEIKR

Legend:
[1] = molecular target: PcrV of Pseudomonas aeruginosa strain PA103 (native, on the bacteria) (Pseudomonas aeruginosa); assay: cell-based or functional assay
[2] = molecular target: GST-PcrV fusion protein (Pseudomonas aeruginosa) [GST: P08515]; assay: SPR, Biacore 3000, GST-PcrV amine-coupled to CM4 chip, Fab in solution
[3] = molecular target: GST-PcrV fusion protein (Pseudomonas aeruginosa) [GST: P08515]; assay: dilution ELISA, purified Fab in twofold series in duplicate on plates coated with GST-PcrV, TMB A450 (upper chart)

| Molecule | IC50, inhibition of Pseudomonas-mediated (TTSS exotoxin-dependent) cytotoxicity to P3-X63-Ag8 cells, propidium iodide flow cytometry [1] [nM] | Kd [2] [nM] | koff [2] [s⁻¹] | kon [2] [M⁻¹ s⁻¹] | EC50 (read off the curve) [3] [nM] |
| --- | --- | --- | --- | --- | --- |
| Mab 166 whole IgG (antibody) | 93 |  |  |  |  |
| B1 |  | 1.1 | 0.00026 | 249000 | 6 |
